In article PMC8567202, “Phosphoinositide-binding activity of Smad2 is essential for its function in TGF-β signaling” (The Journal of Biological Chemistry, 2021):

Tested on: HeLa cells
Experiment: TIRF imaging of PM localization of EGFP-Smad2
Assay type: cell-based
Settings: for PM localization after TGF-β stimulation: HeLa cells with endogenous Smad2 suppressed
Procedure: Figure 4 Quantitative imaging analyses of spatiotemporal dynamics of Smad2.A, TIRF images of mouse EGFP-Smad2-WT transfected into HeLa cells whose endogenous Smad2 is suppressed by siRNA. Images were taken before and 5 min after TGF-β stimulation (10 ng/ml) with and without PI(4,5)P2 depletion. A pseudo-coloring scheme was used with orange and blue representing the highest and the lowest intensity, respectively. B, kinetics of TGF-β stimulated (10 ng/ml) PM localization of EGFP-Smad2-WT (blue), -K420A (green), and -W422A (orange) transfected into HeLa cells the endogenous Smad2 of which was suppressed by siRNA. For EGFP-Smad2-WT, the effect of PI(4,5)P2 depletion (black) and TβRI inhibition by SB-431542 (10 μM for 36 h) (red) were measured. Data points indicate average ±S.D. (n = 10 cells). C, spatially resolved PM PI(4,5)P2 concentration ([PI(4,5)P2]) profiles calculated from two-channel cross-sectional images of HeLa cells (before and 5 min after 10 ng/ml TGF-β stimulation and after PI(4,5)P2 depletion). Each cell is a representative of more than ten cells analyzed. Spatially averaged [PI(4,5)P2] values for each cell type are shown. The z-axis scale indicates [PI(4,5)P2] in mol%. A pseudo-coloring scheme with red and blue representing the highest (1.5 mol%) and the lowest (0 mol%) concentration, respectively, is used to illustrate the spatial [PI(4,5)P2] heterogeneity. Scale bars indicate 10 μm. D, dual color single-molecule tracking of EGFP-PLCδ-PH and SNAP-TMR-labeled TβRI at the PM of HeLa cells. Time courses of the half-life of colocalization for SNAP-TMR-labeled TβRI and EGFP-PLCδ-PH after 10 ng/ml TGF-β stimulation were determined with (orange) and without (blue) PI(4,5)P2 depletion. Data points indicate average ±S.D. (n = 10 cells). E, time courses of the half-life of colocalization for SNAP-TMR-labeled TβRI and EGFP-Smad2 determined by dual color single-molecule tracking analysis. Colocalization of TβRI with EGFP-Smad2-WT (blue), -K420A (green), -W422A (orange), E425K (red), Y426A (cyan), and -R427A/R428A (black) transfected into HeLa cells whose endogenous Smad2 was suppressed by siRNA is shown. For EGFP-Smad2-WT, the effect of PI(4,5)P2 depletion (purple) was measured. Data points indicate average ±S.D. (n = 10 cells). […] TEXT PRINTED IN THE PICTURE: (C) PI(4,5)P2: [PI(4,5)P2] = 1.05 ± 0.20 mol% (HeLa unstimulated); [PI(4,5)P2] = 1.00 ± 0.40 mol% (HeLa 5 min after TGFβ); [PI(4,5)P2] = 0.16 ± 0.08 mol% (HeLa After PI(4,5)P2 depletion) DOUBTS OF THE COPYIST ABOUT THIS PICTURE: Panel C: the printed values are measured membrane concentrations of PI(4,5)P2 in HeLa cells under three conditions, not an activity or property of a compound; it is uncertain whether they count as a result for a substance
Quantitative TIRF microscopy imaging of PM localization of EGFP tagged Smad2 WT and mutants was performed using custom-built internal reflection fluorescence microscope. WT HeLa cells or PI(4,5)P2 depleted HeLa cells were plated on the 8-well chambered cover glass (Lab-Tek, Thermo Fisher Scientific) at the density of 1 × 10^5 for 24 h. Endogenous Smad2 was suppressed using SiRNA and EGFP-Smad2 or mutants were transfected into cells using the jetPRIME system (Polyplus-transfection) according to the manufacturer's protocols. The transfected HeLa cells were serum starved for 16 h prior imaging. PM-bound EGFP-Smad2 fraction was monitored before and after stimulation with 10 ng/ml TGF-β up to 15 min. For EGFP-Smad2 WT, the effect of TβRI inhibition was monitored by incubating cells with 10 μM of SB-431542 for 36 h. Image analysis was performed using Image J software. Mean intensity of the EGFP-Smad2 signal was calculated for each time point, and final graph was plot by subtracting the mean intensity at 0 min from the mean intensity of each time point. More than ten cells were analyzed for each data point.

Molecule | PM localization after TGF-β stimulation (10 ng/ml TGF-β) | time of peak PM translocation after TGF-β stimulation (HeLa cells, 10 ng/ml TGF-β) [min] | PM translocation after PI(4,5)P2 depletion (HeLa cells, rapamycin-induced Inp54 recruitment) | PM residence / dissociation of Smad2 (HeLa cells, 10 ng/ml TGF-β, SB-431542 10 μM for 36 h where used)
EGFP-Smad2 WT: mouse EGFP-Smad2 wild type transfected into HeLa cells (protein, UniProt Q62432 2-467, looked up, EGFP fusion, mouse EGFP-Smad2 wild type transfected into HeLa cells) Mothers against …: SSILPFTPPVVKRLLGWKKSAGGSGGAGGGEQNGQEEKWCEKAVKSLVKKLKKTGRLDELEKAITTQNCNTKCVTIPSTCSEIWGLSTANTVDQWDTTGLYSFSEQTRSLDGRLQVSHRKGLPHVIYCRLWRWPDLHSHHELKAIENCEYAFNLKKDEVCVNPYHYQRVETPVLPPVLVPRHTEILTELPPLDDYTHSIPENTNFPAGIEPQSNYIPETPPPGYISEDGETSDQQLNQSMDTGSPAELSPTTLSPVNHSLDLQPVTYSEPAFWCSIAYYELNQRVGETFHASQPSLTVDGFTDPSNSERFCLGLLSNVNRNATVEMTRRHIGRGVRLYYIGGEVFAECLSDSAIFVQSPNCNQRYGWHPATVCKIPPGCNLKIFNNQEFAALLAQSVNQGFEAVYQLTRMCTIRMSFVKGWGAEYRRQTVTSTPCWIELHLNGPLQWLDKVLTQMGSPSVRCSSMS | clearly visible | – | – | –
Smad2-W422A: W422A mutant of full-length Smad2; specific PI(4,5)P2 binding-compromised (protein, left off: His6, N-terminal, state not stated) MSSILPFTPPVVKRLLGWKKSAGGSGGAGGGEQNGQEEKWCEKAVKSLVKKLKKTGRLDELEKAITTQNCNTKCVTIPSTCSEIWGLSTANTVDQWDTTGLYSFSEQTRSLDGRLQVSHRKGLPHVIYCRLWRWPDLHSHHELKAIENCEYAFNLKKDEVCVNPYHYQRVETPVLPPVLVPRHTEILTELPPLDDYTHSIPENTNFPAGIEPQSNYIPETPPPGYISEDGETSDQQLNQSMDTGSPAELSPTTLSPVNHSLDLQPVTYSEPAFWCSIAYYELNQRVGETFHASQPSLTVDGFTDPSNSERFCLGLLSNVNRNATVEMTRRHIGRGVRLYYIGGEVFAECLSDSAIFVQSPNCNQRYGWHPATVCKIPPGCNLKIFNNQEFAALLAQSVNQGFEAVYQLTRMCTIRMSFVKGAGAEYRRQTVTSTPCWIELHLNGPLQWLDKVLTQMGSPSVRCSSMS | little PM localization | – | – | –
Smad2 WT: bacterially expressed full-length Smad2 wild-type (protein, left off: His6, N-terminal, state not stated, bacterially expressed full-length Smad2 wild-type) MSSILPFTPPVVKRLLGWKKSAGGSGGAGGGEQNGQEEKWCEKAVKSLVKKLKKTGRLDELEKAITTQNCNTKCVTIPSTCSEIWGLSTANTVDQWDTTGLYSFSEQTRSLDGRLQVSHRKGLPHVIYCRLWRWPDLHSHHELKAIENCEYAFNLKKDEVCVNPYHYQRVETPVLPPVLVPRHTEILTELPPLDDYTHSIPENTNFPAGIEPQSNYIPETPPPGYISEDGETSDQQLNQSMDTGSPAELSPTTLSPVNHSLDLQPVTYSEPAFWCSIAYYELNQRVGETFHASQPSLTVDGFTDPSNSERFCLGLLSNVNRNATVEMTRRHIGRGVRLYYIGGEVFAECLSDSAIFVQSPNCNQRYGWHPATVCKIPPGCNLKIFNNQEFAALLAQSVNQGFEAVYQLTRMCTIRMSFVKGWGAEYRRQTVTSTPCWIELHLNGPLQWLDKVLTQMGSPSVRCSSMS | – | 5 | abrogated | –
Smad2-K420A: K420A mutant of full-length Smad2; predominantly TβRI binding-compromised (protein, left off: His6, N-terminal, state not stated) MSSILPFTPPVVKRLLGWKKSAGGSGGAGGGEQNGQEEKWCEKAVKSLVKKLKKTGRLDELEKAITTQNCNTKCVTIPSTCSEIWGLSTANTVDQWDTTGLYSFSEQTRSLDGRLQVSHRKGLPHVIYCRLWRWPDLHSHHELKAIENCEYAFNLKKDEVCVNPYHYQRVETPVLPPVLVPRHTEILTELPPLDDYTHSIPENTNFPAGIEPQSNYIPETPPPGYISEDGETSDQQLNQSMDTGSPAELSPTTLSPVNHSLDLQPVTYSEPAFWCSIAYYELNQRVGETFHASQPSLTVDGFTDPSNSERFCLGLLSNVNRNATVEMTRRHIGRGVRLYYIGGEVFAECLSDSAIFVQSPNCNQRYGWHPATVCKIPPGCNLKIFNNQEFAALLAQSVNQGFEAVYQLTRMCTIRMSFVAGWGAEYRRQTVTSTPCWIELHLNGPLQWLDKVLTQMGSPSVRCSSMS | able to migrate to the PM as fast as WT | – | – | slow dissociation
